Measurements as given in publication PMC6358605.
Numbering of substitutions follows the chain as printed. Numbers in names are those of the source. Each block holds one binder with its values, some of them ahead of it.

Biological target: biotinylated AviTag-BiP^19–413 (NBD), G3I8R9
Assay: BLI
Settings: chain shown with the change; for response: equilibrium signal, read off a plot; for other: K1/2 max: streptavidin biosensors loaded with biotinylated BiP NBD, equilibrium signal vs [MANF] 0-100 µM, parent: 13.9

Sequence of biotinylated AviTag-BiP^19–413 (NBD), G3I8R9 (G3I8R9 19-413): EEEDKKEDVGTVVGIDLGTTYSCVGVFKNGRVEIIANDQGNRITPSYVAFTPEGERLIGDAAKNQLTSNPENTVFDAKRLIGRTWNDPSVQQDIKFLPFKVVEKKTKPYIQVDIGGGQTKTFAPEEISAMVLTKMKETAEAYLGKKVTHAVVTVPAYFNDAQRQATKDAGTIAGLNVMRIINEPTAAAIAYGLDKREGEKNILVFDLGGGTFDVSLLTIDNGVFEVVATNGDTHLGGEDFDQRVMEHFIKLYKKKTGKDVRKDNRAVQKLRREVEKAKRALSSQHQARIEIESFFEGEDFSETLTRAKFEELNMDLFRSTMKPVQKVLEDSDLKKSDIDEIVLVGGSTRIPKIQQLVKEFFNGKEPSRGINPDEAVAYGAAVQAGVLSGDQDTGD

B1: Full-length mouse MANF (wild-type), Q9CXI5 E153A (protein)
chain: LRPGDCEVCISYLGRFYQDLKDRDVTFSPATIEEELIKFCREARGKENRLCYYIGATDDAATKIINEVSKPLAHHIPVEKICEKLKKKDSQICELKYDKQIDLSTVDLKKLRVKELKKILDDWGEMCKGCAAKSDYIRKINELMPKYAPKAASARTDL
response (50 µM MANF, parent: est. 0.68): 0.17 nm | response (100 µM MANF, parent: est. 0.78): 0.24 nm

B2: Full-length mouse MANF (wild-type), Q9CXI5 K138A (protein)
chain: B1 chain with K99N, K117A, A132E
response (50 µM MANF, parent: est. 0.68): 0.3 nm | response (100 µM MANF, parent: est. 0.78): 0.42 nm | other: K1/2 max (R2 0.913): 31 µM

Other lines, results leading:

response (50 µM MANF, parent: est. 0.68): 0.1 nm | response (100 µM MANF, parent: est. 0.78): 0.13 nm
B3: Full-length mouse MANF (wild-type), Q9CXI5 R133E (protein)
chain: B1 chain with R112E, A132E

response (50 µM MANF, parent: est. 0.68): 0.52 nm | response (100 µM MANF, parent: est. 0.78): 0.58 nm | other: K1/2 max (R2 0.978): 15.3 µM
B4: Full-length mouse MANF (wild-type), Q9CXI5 R23A (protein)
chain: B1 chain with R2A, K99N, A132E
